T1: native γc proteins from human (Homo sapiens, UniProt P31785)
T1 construct: transfected with plasmid expressing full length γc protein from human; expressed in transfected cells; host or cells: HEK-293
T1 sequence (P31785 23-369): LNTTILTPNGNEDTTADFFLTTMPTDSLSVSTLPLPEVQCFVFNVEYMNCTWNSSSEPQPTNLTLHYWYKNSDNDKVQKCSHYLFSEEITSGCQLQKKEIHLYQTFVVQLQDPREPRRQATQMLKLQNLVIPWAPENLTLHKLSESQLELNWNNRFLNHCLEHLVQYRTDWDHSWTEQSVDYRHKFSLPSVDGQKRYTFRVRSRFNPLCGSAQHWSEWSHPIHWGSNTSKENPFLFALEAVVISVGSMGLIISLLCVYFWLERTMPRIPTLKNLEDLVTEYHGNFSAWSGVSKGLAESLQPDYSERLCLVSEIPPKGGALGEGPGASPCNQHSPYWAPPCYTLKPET


How the values were obtained:
BCL-2 expression = test: IL-7 induced BCL-2 expression in HPB-ALL, flow cytometry; format: cell-based, human; details: humanized antibodies, 33 nM, vs ritlecitinib
Procedure: Several assays, such as were proposed to study cell survival of HPB-ALL from literature [Ribeiro et al., Blood Adv., 2018; 2 (17): 2199-2213] was measured in terms of BCL2 (anti-apoptotic marker) expressing cells by flow cytometry. In brief, HPB-ALL was pre-treated with antibodies or inhibitors for an hour before stimulated with 50 ng/ml IL-7 for 3 days. Cells were harvested and stained with FITC-conjugated BCL-2 antibody (Biolegend) for flow cytometry analysis.

Jurkat T cells = test: IL-9 rescue of ceramide induced Jurkat cell death, WST-8; format: cell-based, human; details: ceramide 50 μM; IL-9 50 ng/ml; three days
Procedure: Jurkat T cells were pretreated with anti-γc antibodies or ritlecitinib before the application of anti-tumor ceramide (50 μM) and IL-9 (50 ng/ml) for three days. To evaluate cell survival, 10 μl WST-8 reagent was added to each well and incubated for 4 hours before spectrophotometer measurement.

[1] = system: CD127 internalization and degradation; test: IL-7 induced CD127 internalization and degradation in HPB-ALL, flow cytometry; format: cell-based, human; details: humanized antibodies, 33 nM, vs ritlecitinib
Text: Specific methods for IL-7 function were developed in HPB-ALL [Henriques et al., Blood., 2010; 115 (16): 3269-77]. IL-7 could trigger the internalization of its own receptor, CD127 (or IL-7Rai), into the cell compartment for degradation. As the CD127 degradation depends on the JAK3 activated status after IL-7 stimulation, blockade of γc binding to CD127 and downstream signaling pathway should stop CD127 internalization and degradation in HPB-ALL.
After antibody or inhibitor pretreatment, HPB-ALL was challenged with 50 ng/ml IL-7 for 3 hours. Surface CD127 expression was performed in live cells while total CD127 expression was investigated in PFA fixed and permeabilized cells. Cells were stained with APC-conjugated CD127 antibody for flow cytometry analysis.

[2] = molecular target: T1, native γc proteins from human; test: Binding to native human γc on transfected HEK-293 cells, flow cytometry; format: cell-based; details: FITC-labelled antibody 33 nM (5 μg/ml)
Procedure: (§1) The binding specificities of humanized anti-γc antibodies to native γc proteins were further evaluated by […] binding assay. In brief, human HEK-293 cells were transfected with plasmid expressing full length γc protein from human, rhesus, cynomolgus or common marmoset. Two days later, transfected cells or non-transfected controls were incubated with FITC-conjugated hSM-05A on ice for an hour before analysis by flow cytometry.

[3] = system: native γc proteins from common marmoset; test: Binding to native common marmoset γc on transfected HEK-293 cells, flow cytometry; format: cell-based; details: FITC-labelled antibody 33 nM (5 μg/ml)
Chain of native γc proteins from common marmoset (as listed by the source): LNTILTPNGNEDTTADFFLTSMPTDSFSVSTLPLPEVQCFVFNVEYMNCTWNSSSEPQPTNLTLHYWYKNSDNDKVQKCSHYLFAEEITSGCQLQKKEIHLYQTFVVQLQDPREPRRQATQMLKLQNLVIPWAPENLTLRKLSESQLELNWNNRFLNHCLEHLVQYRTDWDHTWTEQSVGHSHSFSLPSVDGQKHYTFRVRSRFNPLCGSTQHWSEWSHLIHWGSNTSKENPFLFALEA
Procedure: as §1

rat γc = test: BLI binding kinetics to rat γc protein
Chain of rat γc (as listed by the source): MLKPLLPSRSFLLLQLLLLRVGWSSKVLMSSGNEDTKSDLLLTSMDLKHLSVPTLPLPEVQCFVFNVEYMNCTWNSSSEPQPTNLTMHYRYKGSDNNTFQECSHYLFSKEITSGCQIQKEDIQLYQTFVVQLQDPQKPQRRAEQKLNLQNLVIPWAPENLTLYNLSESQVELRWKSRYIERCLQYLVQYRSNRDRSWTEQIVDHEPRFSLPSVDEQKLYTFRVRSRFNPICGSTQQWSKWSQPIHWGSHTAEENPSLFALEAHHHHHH

Ka (rat γc) | Kdis (rat γc) | Molecule | suppression of IL-7 induced BCL-2 upregulation (BCL-2 expression) | suppression of IL-9 rescue of ceramide induced Jurkat cell death (Jurkat T cells) | suppression of IL-7 induced CD127 degradation [1] | binding to native human γc on HEK-293 [2] | binding to native common marmoset γc on HEK-293 [3]
– | – | hSM-05A: full-length humanized anti-γc antibody derived from SM-05A by framework patching (antibody, V domains shown) VH: QVQLVQSGAEVLKPGASVKVSCKASGYTFTEYTMHWVKQARGQRLEWIGGIDPYNGGATYNQRFKGKATLTTDTSTSTAYMELRNLRSDDTAVYYCARRRLYYGNALDYWGQGTLVTVSS VL: DIVMTQSPLSLPVTPGEQASISCRSSQSLVHSNGNTYLHWYLQKPGQSPQLLIYKVSSRFSGVPDRFSGSGSGTDFTLKISRVEAEDVGVYFCSQTTHVPFTFGSGTKLEIKR | better suppression to IL-7 induced BCL-2 upregulation and CD127 degradation than ritlecitinib | could suppress the IL-9 effect | better suppression to IL-7 induced BCL-2 upregulation and CD127 degradation than ritlecitinib | could bind to the native γc proteins from humans and common marmoset | could bind to the native γc proteins from humans and common marmoset
71000 M⁻¹ s⁻¹ | 0.00208 s⁻¹ | hSM-05E: full-length humanized anti-γc antibody derived from SM-05E by framework patching (antibody, V domains shown) VH: QVQLVQSGAEVLKPGASVKVSCKASGYTFTEYTMHWVKQARGQRLEWIGGIDPNTGGVTYNQKFKGKATLTTDTSTSTAYMELRNLRSDDTAVYYCARRRRYYGYALDYWGQGTLVTVSS VL: DIVMTQSPLSLPVTPGEQASISCRSSQSIVHSNGNTYLEWYLQKPGQSPQLLIYKVSNRFSGVPDRFSGSGSGTDFTLKISRVEAEDVGVYFCSQSTHVPFMFGSGTKLEIKR | – | – | – | – | –
